Laboratory results published in publication PMC5651819, “AtSPX1 affects the AtPHR1–DNA-binding equilibrium by binding monomeric AtPHR1 in solution” (Biochemical Journal, 2017).

Biological target: T1, MBP–AtdPHR1 (DNA-binding domain and coiled-coil domain of AtPHR1 fused to maltose-binding protein) (Arabidopsis thaliana, UniProt Q94CL7 208-362)
T1 construct: cloned in pMAL-c2x via BamHI and HindIII; the methods print 208–362, and the predicted mass of 60 651 fits 208–362 with MBP; also called MBPdAtPHR1; MBPdPHR1; source: E. coli BL21-gold (DE3), purified (amylose resin, IEX on HiTrap Q-HP); not shown: MBP, N-terminal, kept
T1 sequence (Q94CL7 208-362): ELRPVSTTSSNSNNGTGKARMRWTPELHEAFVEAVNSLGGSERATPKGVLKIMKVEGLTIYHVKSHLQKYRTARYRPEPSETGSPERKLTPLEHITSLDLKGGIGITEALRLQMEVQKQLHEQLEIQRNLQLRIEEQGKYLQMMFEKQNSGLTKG
Experiment: pull-down; MBP–AtdPHR1 from cell lysate immobilised on amylose matrix and washed, incubated with affinity-purified GST–AtSPX1 for 2 h at 4°C, eluted with 10 mM maltose, anti-GST blot; buffer with Pi (PBS pH 7.4, 200 mM NaCl, 1 mM EDTA, 1 mM DTT), compared with buffer without Pi (20 mM Tris pH 7.5, 200 mM NaCl, 1 mM EDTA, 1 mM DTT)
Details: both partners purified

fold more in elution fraction E1 in the presence of phosphate than in its absence: 1.5 fold | fold more in elution fraction E2 in the presence of phosphate than in its absence: 3.5 fold
B1: GST–AtSPX1 (N-terminal GST-tagged full-length AtSPX1) (natural protein, Arabidopsis thaliana, UniProt Q8LBH4 1-256, looked up)
chain: MKFGKSLSNQIEQTLPEWQDKFLSYKELKKRLKLIGSKTADRPVKRLRLDEFSVGISKEEINFIQLLEDELEKFNNFFVEKEEEYIIRLKEFRDRIAKAKDSMEKMIKIRKEIVDFHGEMVLLENYSALNYTGLVKILKKYDKRTGDLMRLPFIQKVLQQPFYTTDLLFKLVKESEAMLDQIFPANETESEIIQAELSEHKFMESLHMKSTIAALRVLKEIRSGSSTVSVFSLPPLQLNGLDETWKKIPLLEQEAK
notes: AtSPX1, Arabidopsis thaliana, At5G20150.1, full-length cDNA in pGEX-2T via BamHI and EcoRI; also called GST–SPX1; not shown: GST, N-terminal, kept
